Source: IntAct's records for PubMed 20080774

B1: Nuclear factor of activated T-cells 5 (Homo sapiens), O94916-1 (parent)
chain: MPSDFISLLSADLDLESPKSLYSRESVYDLLPKELQLPPSRETSVASMSQTSGGEAGSPPPAVVAADASSAPSSSSMGGACSSFTTSSSPTIYSTSVTDSKAMQVESCSSAVGVSNRGVSEKQLTSNTVQQHPSTPKRHTVLYISPPPEDLLDNSRMSCQDEGCGLESEQSCSMWMEDSPSNFSNMSTSSYNDNTEVPRKSRKRNPKQRPGVKRRDCEESNMDIFDADSAKAPHYVLSQLTTDNKGNSKAGNGTLENQKGTGVKKSPMLCGQYPVKSEGKELKIVVQPETQHRARYLTEGSRGSVKDRTQQGFPTVKLEGHNEPVVLQVFVGNDSGRVKPHGFYQACRVTGRNTTPCKEVDIEGTTVIEVGLDPSNNMTLAVDCVGILKLRNADVEARIGIAGSKKKSTRARLVFRVNIMRKDGSTLTLQTPSSPILCTQPAGVPEILKKSLHSCSVKGEEEVFLIGKNFLKGTKVIFQENVSDENSWKSEAEIDMELFHQNHLIVKVPPYHDQHITLPVSVGIYVVTNAGRSHDVQPFTYTPDPAAAGALNVNVKKEISSPARPCSFEEAMKAMKTTGCNLDKVNIIPNALMTPLIPSSMIKSEDVTPMEVTAEKRSSTIFKTTKSVGSTQQTLENISNIAGNGSFSSPSSSHLPSENEKQQQIQPKAYNPETLTTIQTQDISQPGTFPAVSASSQLPNSDALLQQATQFQTRETQSREILQSDGTVVNLSQLTEASQQQQQSPLQEQAQTLQQQISSNIFPSPNSVSQLQNTIQQLQAGSFTGSTASGSSGSVDLVQQVLEAQQQLSSVLFSAPDGNENVQEQLSADIFQQVSQIQSGVSPGMFSSTEPTVHTRPDNLLPGRAESVHPQSENTLSNQQQQQQQQQQVMESSAAMVMEMQQSICQAAAQIQSELFPSTASANGNLQQSPVYQQTSHMMSALSTNEDMQMQCELFSSPPAVSGNETSTTTTQQVATPGTTMFQTSSSGDGEETGTQAKQIQNSVFQTMVQMQHSGDNQPQVNLFSSTKSMMSVQNSGTQQQGNGLFQQGNEMMSLQSGNFLQQSSHSQAQLFHPQNPIADAQNLSQETQGSLFHSPNPIVHSQTSTTSSEQMQPPMFHSQSTIAVLQGSSVPQDQQSTNIFLSQSPMNNLQTNTVAQEAFFAAPNSISPLQSTSNSEQQAAFQQQAPISHIQTPMLSQEQAQPPQQGLFQPQVALGSLPPNPMPQSQQGTMFQSQHSIVAMQSNSPSQEQQQQQQQQQQQQQQQQQSILFSNQNTMATMASPKQPPPNMIFNPNQNPMANQEQQNQSIFHQQSNMAPMNQEQQPMQFQSQSTVSSLQNPGPTQSESSQTPLFHSSPQIQLVQGSPSSQEQQVTLFLSPASMSALQTSINQQDMQQSPLYSPQNNMPGIQGATSSPQPQATLFHNTAGGTMNQLQNSPGSSQQTSGMFLFGIQNNCSQLLTSGPATLPDQLMAISQPGQPQNEGQPPVTTLLSQQMPENSPLASSINTNQNIEKIDLLVSLQNQGNNLTGSF
partner: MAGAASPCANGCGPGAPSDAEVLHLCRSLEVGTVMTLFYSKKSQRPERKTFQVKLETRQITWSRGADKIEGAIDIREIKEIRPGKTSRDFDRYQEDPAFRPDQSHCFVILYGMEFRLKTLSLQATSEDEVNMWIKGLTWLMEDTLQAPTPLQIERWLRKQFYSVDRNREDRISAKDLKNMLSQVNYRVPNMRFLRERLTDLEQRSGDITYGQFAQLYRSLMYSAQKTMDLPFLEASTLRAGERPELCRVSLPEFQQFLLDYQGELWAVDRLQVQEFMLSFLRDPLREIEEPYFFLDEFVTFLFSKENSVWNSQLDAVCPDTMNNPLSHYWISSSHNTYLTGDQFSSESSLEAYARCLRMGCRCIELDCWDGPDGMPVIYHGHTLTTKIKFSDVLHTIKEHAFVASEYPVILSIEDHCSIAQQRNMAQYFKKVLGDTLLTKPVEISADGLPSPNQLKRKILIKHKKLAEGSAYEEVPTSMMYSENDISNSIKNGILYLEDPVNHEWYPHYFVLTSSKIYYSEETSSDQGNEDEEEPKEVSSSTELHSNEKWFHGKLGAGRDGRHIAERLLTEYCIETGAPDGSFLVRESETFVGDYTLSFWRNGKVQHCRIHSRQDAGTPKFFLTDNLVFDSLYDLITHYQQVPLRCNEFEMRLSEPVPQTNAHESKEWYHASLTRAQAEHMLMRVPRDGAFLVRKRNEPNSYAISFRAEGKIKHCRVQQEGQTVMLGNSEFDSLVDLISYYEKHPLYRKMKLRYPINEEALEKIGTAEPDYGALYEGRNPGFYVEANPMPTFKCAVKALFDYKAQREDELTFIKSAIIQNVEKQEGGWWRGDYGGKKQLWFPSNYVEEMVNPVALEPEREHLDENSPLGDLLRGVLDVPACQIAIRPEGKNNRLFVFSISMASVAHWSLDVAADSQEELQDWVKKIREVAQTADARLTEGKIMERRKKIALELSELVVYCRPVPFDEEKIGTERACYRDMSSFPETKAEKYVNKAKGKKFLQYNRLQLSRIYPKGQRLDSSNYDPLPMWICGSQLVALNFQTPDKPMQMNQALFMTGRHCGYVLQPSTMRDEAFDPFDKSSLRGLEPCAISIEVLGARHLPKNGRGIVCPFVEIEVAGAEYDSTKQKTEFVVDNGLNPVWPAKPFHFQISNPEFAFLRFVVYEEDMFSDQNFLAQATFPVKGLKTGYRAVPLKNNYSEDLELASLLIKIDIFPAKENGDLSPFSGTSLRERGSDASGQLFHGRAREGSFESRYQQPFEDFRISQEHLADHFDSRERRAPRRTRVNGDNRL

Variants of: B1
Conditions: with plcg1_human PLCG1, P19174

effect of a mutation on the interaction	Variant
decreasing interaction	Y143A
